Measurements: patent US20240382606A1

Target: CD8 co-receptors on CD8+ T cells (OT-1 mouse splenocytes) (mouse) (UniProt P01731)
Experiment: flow cytometry, noncognate APNs on OT-1 CD8+ splenocytes, in vitro

UniProt P01731, sequence (P01731 28-247, chain 1 of 2): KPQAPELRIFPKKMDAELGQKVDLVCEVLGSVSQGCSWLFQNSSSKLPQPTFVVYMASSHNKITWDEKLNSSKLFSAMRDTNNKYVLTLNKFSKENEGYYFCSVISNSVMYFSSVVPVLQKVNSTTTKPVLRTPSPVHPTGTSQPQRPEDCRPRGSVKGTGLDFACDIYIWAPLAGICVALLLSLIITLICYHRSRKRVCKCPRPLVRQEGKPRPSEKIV
UniProt P01731, sequence (P10300 22-213, chain 2 of 2, further chain): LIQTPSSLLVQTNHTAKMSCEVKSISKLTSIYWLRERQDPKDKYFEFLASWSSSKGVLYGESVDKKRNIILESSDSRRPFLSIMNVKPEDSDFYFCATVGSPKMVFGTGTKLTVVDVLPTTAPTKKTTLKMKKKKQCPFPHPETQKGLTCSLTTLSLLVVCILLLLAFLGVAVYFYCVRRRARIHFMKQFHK

Substance “NS2/K^b antigen-presenting nanoparticle (APN): NS2 peptide RTFSFQLI on H2-K^b on an mRNA lipid nanoparticle (peptide-MHC)” has a percent cross-reactivity of 10%.
